Biological target: HTLV-1 CA C-terminal domain, HTLV-1 CACTD (A128-L214) (Human T-cell Leukaemia Virus type 1, subtype C, isolate Aus-GM)
Assay: SEC; HTLV-1 CACTD on HiLoad 26/600 Superdex 75 pg, 20 mM HEPES (pH 7.0), 40 mM NaCl; purified as a dimer (Supplementary Fig. 3d)

HTLV-1 CA C-terminal domain, HTLV-1 CACTD (A128-L214) (domain or fragment)
stoichiometry N: 2
